Results from patent US20160032001A1 (APEXIGEN, published 2016).
Positions count from the first letter of the chain named. Read-outs that look alike come from different tables or passages of the source. Values belong to the binder of their own block, whether it stands above or below them.

Legend:
[1] = biological target: T1, RANKL expressed on the surface of 293 cells (UniProt O14788 1-317, limits assumed); experiment: flow cytometry (MFI) on RANKL-transfected 293 cells
T1 construct: whole, on cells; also called RANKL-transfected 293 cells; cells expressing RANKL
T1 sequence (looked up): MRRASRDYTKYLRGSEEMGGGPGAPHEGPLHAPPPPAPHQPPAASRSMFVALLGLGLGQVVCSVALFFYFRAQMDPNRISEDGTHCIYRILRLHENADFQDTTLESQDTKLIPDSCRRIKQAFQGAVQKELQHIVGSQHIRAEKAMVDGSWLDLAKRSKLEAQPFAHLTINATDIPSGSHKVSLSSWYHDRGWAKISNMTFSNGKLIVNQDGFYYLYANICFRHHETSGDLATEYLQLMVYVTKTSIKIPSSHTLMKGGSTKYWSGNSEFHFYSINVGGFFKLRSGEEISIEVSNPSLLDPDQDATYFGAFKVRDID

human RANKL protein [2] = biological target: T2, human RANKL protein (human, UniProt O14788 140-317, limits assumed); experiment: competition ELISA: RANKL (0.5 ug/ml) pre-incubated with the antibody, then binding to coated human RANK (8 ug/ml) detected; blocked partner RANK
T2 sequence (looked up): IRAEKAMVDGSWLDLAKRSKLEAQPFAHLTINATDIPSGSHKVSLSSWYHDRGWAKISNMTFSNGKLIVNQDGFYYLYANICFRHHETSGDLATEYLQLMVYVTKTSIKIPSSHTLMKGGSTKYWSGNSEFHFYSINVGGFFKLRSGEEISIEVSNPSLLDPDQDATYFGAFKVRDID

human RANKL protein [3] = biological target: T2, human RANKL protein; experiment: cell-based or functional assay
human RANKL protein [4] = biological target: T2, human RANKL protein; experiment: surface plasmon resonance
[5] = biological target: T1, RANKL expressed on the surface of 293 …; experiment: flow cytometry (MFI) on RANKL-transfected 293 cells; remark: listed apart in the source
[6] = biological target: T1, RANKL expressed on the surface of 293 …; experiment: as above; remark: listed apart in the source
human RANKL protein [7] = biological target: T2, human RANKL protein; experiment: competition ELISA: RANKL (0.5 ug/ml) pre-incubated with the antibody, then binding to coated human RANK (8 ug/ml) detected; blocked partner RANK; remark: listed apart in the source
human RANKL protein [8] = biological target: T2, human RANKL protein; experiment: competition ELISA: RANKL (0.5 ug/ml) pre-incubated with the antibody, then binding to coated RANK (8 ug/ml) detected; blocked partner RANK [table at the lower right]
[9] = biological target: T1, RANKL expressed on the surface of 293 …; experiment: flow cytometry (MFI) on RANKL-transfected 293 cells; remark: listed apart in the source
[10] = biological target: T1, RANKL expressed on the surface of 293 …; experiment: as above; remark: listed apart in the source
human RANKL protein [11] = biological target: T2, human RANKL protein; experiment: competition ELISA: RANKL (0.5 ug/ml) pre-incubated with the antibody, then binding to coated human RANK (8 ug/ml) detected; blocked partner RANK; remark: listed apart in the source
human RANKL protein [12] = biological target: T2, human RANKL protein; experiment: ELISA on RANKL protein (OD450nm)
human RANKL protein [13] = biological target: T2, human RANKL protein; experiment: competition ELISA: RANKL (0.5 ug/ml) pre-incubated with the antibody, then binding to coated human RANK (8 ug/ml) detected; blocked partner RANK; remark: listed apart in the source

EC50 [1]: 0.398 µg/mL
IC50 (human RANKL protein [2]): 0.0812 µg/mL
B3: clone 547 rabbit anti-RANKL antibody (antibody, V domains shown)
VH: QEQLKESGGGLVTPGGTLTLTCTASGFSLSSNGMSWVRQAPGKGLEWIGYIYSGSSPYYASWAKGRFTISKTSSTTVDLKMTSLTTEDTAKYFCARHVSGGGWYLDIWGPGTLVTVSL
VL: DMIQTPASVEVAVGGTVTINCQASQSIGSNLAWYQQKPGQRPKLLIYGASTLASGVSSRVKGSGSGTQFTFTISDVECTDAATYYCQQAYSISNVDNAFGGGTEVVVK

IC50 in a RAW cell assay (TRAP activity, OD 405 nM) (human RANKL protein [3]): 0.0036 µg/mL
Kd (human RANKL protein [4]): 0.312 nM
koff (human RANKL protein [4]): 0.000275 s⁻¹
kon (human RANKL protein [4]): 880000 M⁻¹ s⁻¹
EC50 [9]: 0.083 µg/mL
EC50 [10]: 0.4 µg/mL
IC50 (human RANKL protein [11]): 0.0439 µg/mL
IC50 (human RANKL protein [8]): 0.083 µg/mL
B4: clone EBI-51-22 rabbit anti-RANKL antibody (antibody, V domains shown)
VH: QSVEESGGRLVTPGTLLTLTCTVSGFSLSTDVLSWVRQAPGKGLEWIGYTWSGGSTYYASWAKGRFTISKTSSTTVDLKITSPTTEDTATYFCARGFNPFDPWGPGTLVTVSS
VL: DMTQTPASVSDPVGGTVTIKCQASQNIGSNLAWYQQKPGQRPKLLIYRASTLASGVSSRFKGSGSGTQFTLTISDLECADAATYYCQQGYSAGNVDNNAFGGGTEVVVK

EC50 (human RANKL protein [12]): 0.0238 µg/mL
EC50 [6]: 0.947 µg/mL
IC50 (human RANKL protein [8]): 0.081 µg/mL
B8: humanized clone 23 antibody, VH 23HZD-1 HC with humanized VL 23 Vkb, IgG2 (antibody, V domains shown)
VH: EVQLVESGGGLVQPGGSLRLSCAASGFSLSSDGMSWVRQAPGKGLEWIGYIYSGSSPYYANWAKGRFTISKDSSKNTVYLQMNSLRAEDTAVYFCARHGSGGGWYLDIWGPGTLVTVSS
VL: DIQMTQSPSSLSASVGDRVTINCQASQSIGSNLAWYQQKPGKRPKLLIYAASTLPSGVPSRFSGSGSGTDFTLTISSLQPEDFATYYCQQAYSVGNVDNAFGGGTKVEIK
notes: also called humanized 23 vkb; humanized 23 VKB

EC50 (human RANKL protein [12]): 0.0117 µg/mL
B9: h23n IgG2 humanized clone 23 antibody (antibody, V domains shown)
VH: B8 VH with E1Q, V2E, A23V, K75T, Y79F, S100D
VL: B8 VL with R43A, P59S, S76N, Q79E, P80A, F83A
notes: IgG2; also called h23n VH and VL

Continued, binder first:

B1: clone 476 rabbit anti-RANKL antibody (antibody, V domains shown)
VH: QSLEESGGGLVQPEGSPTLTCTAYLIDFSRYGYMCWVRQAPGKGLEWIGCIHAGRSGRTYYANWAKGRFTISKTSSTTVTLQMTSLTAADTATYFCAKSGDSYVGYFALWGPGTLVTVSS
VL: DIVMTQTPASVEAAVGGTVTIKCQASENIYNYLSWYQQKPGQPPKLLIYEASKLASGVSSRFKGSGSGTEFTLTISDLECADAATYYCQSYYDVTSHSYDNPFGGGTEVVVS
EC50 [1]: 0.0632 µg/mL
IC50 (human RANKL protein [2]): 0.0301 µg/mL

B2: clone 23 rabbit anti-RANKL antibody (antibody, V domains shown)
VH: B3 VH with N32D, S61N, K91T, V98G, L118S
VL: AYDMIQTPASVEVAVGGTVTINCQASQTIGTNLAWYQQKPGQRPKLLIYAASTLPSGVSSRFKGSGSGTQFTLTISDVECSDAATYYCQQAYSVGNVDNAFGGGTEVVVK
notes: also called RabMAb 23; parent 23 rabbit antibody
IC50 in a RAW cell assay (TRAP activity, OD 405 nM) (human RANKL protein [3]): 0.00171 µg/mL
Kd (human RANKL protein [4]): 0.162 nM
koff (human RANKL protein [4]): 0.000154 s⁻¹
kon (human RANKL protein [4]): 950000 M⁻¹ s⁻¹
EC50 [5]: 0.0903 µg/mL
EC50 [6]: 0.1 µg/mL
IC50 (human RANKL protein [7]): 0.0111 µg/mL
IC50 (human RANKL protein [8]): 0.041 µg/mL

B5: clone 480 rabbit anti-RANKL antibody (antibody, V domains shown)
VH: QSLEESGGRLVTPGGSLTLTCTVSGFSLSNYEINWVRQAPGKGLEWIGYIDVGSGTWYASWAKGRFTISKTSTTVDLKITSPTTGDTATYFCSRSYNPMDLWGPGTLVTVSS
VL: DMTQTPASVEVAVGGTVTIKCQASQNIGSNLAWYQQKPGQRPKLLIYSASTLASGVPSRFKGSGSGTQFTLTISGVQCDDAATYYCQQGYSVGNVNNAFGGGTEVVVK
EC50 [1]: 0.172 µg/mL
IC50 (human RANKL protein [2]): 0.0284 µg/mL

B6: humanized clone 23 antibody, VH 23HZD-1 HC with humanized VL 23 Vk (antibody, V domains shown)
VH: B8 VH
VL: B8 VL with S28T, S31T
notes: also called humanized 23 Vk; 23LHZD
EC50 [6]: 0.414 µg/mL
IC50 (human RANKL protein [8]): 0.112 µg/mL

B7: humanized clone 23 antibody, VH 23HZD-1 HC with humanized VL 23 Vkb, IgG1 (antibody, V domains shown)
VH: B8 VH
VL: B8 VL
notes: also called h23 IgG1
EC50 (human RANKL protein [12]): 0.0425 µg/mL

B10: clone 408 rabbit anti-RANKL antibody (antibody, V domains shown)
VH: QSVEESGGRLVTPGTPLTLTCTVSGFSLSTDVVSWVRQAPGKGLEWIGYTWNGGATFYASWAKGRFTFSKTSTTVDLKITSPTTEDTATYFCARGYNGMDPWGPGTLVTVSS
VL: DMTQTPASVEAAVGGAVTIKCQASQNIGSNLAWYHQKPGQPPKLLISKASTLASGVPSRFKGSGSGTEFTLAISDLECADAATYYCQQGYTTKNVVNPFGGGTEVVVK
IC50 in a RAW cell assay (TRAP activity, OD 405 nM) (human RANKL protein [3]): 0.00644 µg/mL
Kd (human RANKL protein [4]): 0.432 nM
koff (human RANKL protein [4]): 0.000262 s⁻¹
kon (human RANKL protein [4]): 607000 M⁻¹ s⁻¹
EC50 [1]: 0.0898 µg/mL
EC50 [10]: 0.303 µg/mL
IC50 (human RANKL protein [13]): 0.058 µg/mL
IC50 (human RANKL protein [8]): 0.098 µg/mL
